Data: publication PMC8458281, “Computational modeling and experimental validation of the EPI-X4/CXCR4 complex allows rational design of small peptide antagonists” (Communications Biology, 2021)
No end group written: not given here.

Key:
CXCR4 L41A [1] = assay: 12G5 antibody competition, 293T cells transfected with CXCR4 L41A; assay type: binding, human; conditions: IC50 on CXCR4 L41A relative to wt
Protocol: (§1) Fig. 4 The interactions of EPI-X4 and the EPI-X4 derivatives WSC02 and JM#21 with point-mutated CXCR4 were assessed by an antibody competition assay. Amino acid substitutions were introduced in the sequence of CXCR4 by site-directed mutagenesis, cloned into an IRES-eGFP expression vector, and transfected into 293 T cells. Afterward, cells were incubated with serially diluted EPI-X4 (a, b), WSC02 (c, d), or JM#21 (e, f) in presence of a constant concentration of CXCR4 specific antibody (clone 12G5). After 2 h, bound antibody was analyzed by flow cytometry. a, c, e) Representative dose-dependent replacement of 12G5 antibody by peptides. b, d, f) IC50 values were calculated by nonlinear regression. Shown are data derived from at least three individual experiments ± SEM. IC50 values were set to 1000 µM (EPI-X4 and WSC02) or 100 µM (JM#21) if the value exceeds the maximally used concentration. *p ≤ 0.05, ***p ≤ 0.001 (one-way ANOVA for comparison with wt). For IC50 values see Table 1. For all binding curves see also Fig. S8.
(§2) Mutated CXCR4 constructs were transfected into 293 T cells that have a very low endogenous expression level of wild-type CXCR4. Transfected cells were then analyzed for CXCR4 surface expression (Fig. S5a) and EPI-X4 binding using a flow cytometry-based antibody competition assay (Fig. S5b, c)[33]. […]

CXCR4 D97E [2] = assay: 12G5 antibody competition, 293T cells transfected with CXCR4 D97E; assay type: binding, human; conditions: IC50 on CXCR4 D97E relative to wt
Protocol: as §1, §2

CXCR4 D97S [3] = assay: 12G5 antibody competition, 293T cells transfected with CXCR4 D97S; assay type: binding, human; conditions: IC50 on CXCR4 D97S relative to wt
Protocol: as §1, §2

CXCR4 V112A [4] = assay: 12G5 antibody competition, 293T cells transfected with CXCR4 V112A; assay type: binding, human; conditions: IC50 on CXCR4 V112A relative to wt
Protocol: as §1, §2

CXCR4 D187E [5] = assay: 12G5 antibody competition, 293T cells transfected with CXCR4 D187E; assay type: binding, human; conditions: IC50 on CXCR4 D187E relative to wt
Protocol: as §1, §2

CXCR4 D262A [6] = assay: 12G5 antibody competition, 293T cells transfected with CXCR4 D262A; assay type: binding, human; conditions: IC50 on CXCR4 D262A relative to wt
Protocol: as §1, §2

CXCR4 E277A [7] = assay: 12G5 antibody competition, 293T cells transfected with CXCR4 E277A; assay type: binding, human; conditions: IC50 on CXCR4 E277A relative to wt
Protocol: as §1, §2

CXCR4 D97E + V112A [8] = assay: 12G5 antibody competition, 293T cells transfected with CXCR4 D97E + V112A; assay type: binding, human; conditions: IC50 on CXCR4 D97E + V112A relative to wt
Protocol: as §1, §2

CXCR4 D97E + V112L [9] = assay: 12G5 antibody competition, 293T cells transfected with CXCR4 D97E + V112L; assay type: binding, human; conditions: IC50 on CXCR4 D97E + V112L relative to wt
Protocol: as §1, §2

CXCR4 V112A + L41A [10] = assay: 12G5 antibody competition, 293T cells transfected with CXCR4 V112A + L41A; assay type: binding, human; conditions: IC50 on CXCR4 V112A + L41A relative to wt
Protocol: as §1, §2

[11] = tested on: CXCR4 D97E + V112A + L41A; assay: 12G5 antibody competition, 293T cells transfected with CXCR4 D97E + V112A + L41A; assay type: binding, human; conditions: IC50 on CXCR4 D97E + V112A + L41A relative to wt
Protocol: as §1, §2

[12] = target: T1, C-X-C motif chemokine receptor 4 (CXCR4) on SupT1 cells (human (endogenous in SupT1), UniProt P61073 1-352); assay: flow cytometry on cells; 12G5 antibody competition on SupT1 cells; peptides in PBS with APC-conjugated 12G5 at a concentration close to its EC50, 4 °C, 2 h; MFI normalized to PBS control; IC50 by nonlinear regression; conditions: one partner purified
T1 construct: CXCR4 as expressed on SupT1 cells; source: endogenous, on SupT1 cells

[13] = target: CXCR4 D97E + V112A + L41A (human, UniProt P61073-1 1-352, L41A | D97E | V112A); assay: FACS
CXCR4 D97S [14] = target: CXCR4 D97S (human, UniProt P61073-1 1-352, D97S); assay: FACS
CXCR4 D97T = CXCR4 D97T (human, UniProt P61073-1 1-352, D97T); assay: FACS
CXCR4 D97Q = CXCR4 D97Q (human, UniProt P61073-1 1-352, D97Q); assay: FACS
CXCR4 V112A [15] = target: CXCR4 V112A (human, UniProt P61073-1 1-352, V112A); assay: FACS
CXCR4 D97E [16] = target: CXCR4 D97E (human, UniProt P61073-1 1-352, D97E); assay: FACS
CXCR4 E288A = CXCR4 E288A (human, UniProt P61073-1 1-352, E288 to Ala); assay: FACS
[17] = target: T2, CXCR4 wt (transfected 293T cells) (human, UniProt P61073-1 1-352); assay: FACS
T2 chain: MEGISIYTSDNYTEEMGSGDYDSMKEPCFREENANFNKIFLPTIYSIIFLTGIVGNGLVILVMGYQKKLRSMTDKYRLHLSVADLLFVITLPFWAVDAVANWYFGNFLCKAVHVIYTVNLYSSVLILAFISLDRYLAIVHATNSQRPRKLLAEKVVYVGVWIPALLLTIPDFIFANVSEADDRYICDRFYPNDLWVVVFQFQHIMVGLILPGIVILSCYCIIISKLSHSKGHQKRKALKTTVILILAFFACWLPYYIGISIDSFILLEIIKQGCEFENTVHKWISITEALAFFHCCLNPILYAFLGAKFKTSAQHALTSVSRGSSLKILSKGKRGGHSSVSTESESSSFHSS

CXCR4 D97E + V112L [18] = target: CXCR4 D97E + V112L (human, UniProt P61073-1 1-352, D97E | V112L); assay: FACS
CXCR4 V112L = CXCR4 V112L (human, UniProt P61073-1 1-352, V112L); assay: FACS
CXCR4 D187E [19] = target: CXCR4 D187E (human, UniProt P61073-1 1-352, D187E); assay: FACS
CXCR4 E288D = CXCR4 E288D (human, UniProt P61073-1 1-352, E288 to Asp); assay: FACS
CXCR4 L41A [20] = target: CXCR4 L41A (human, UniProt P61073-1 1-352, L41A); assay: FACS
CXCR4 V112A + L41A [21] = target: CXCR4 V112A + L41A (human, UniProt P61073-1 1-352, L41A | V112A); assay: FACS
CXCR4 E277A [22] = target: CXCR4 E277A (human, UniProt P61073-1 1-352, E277A); assay: FACS
CXCR4 D97E + V112A [23] = target: CXCR4 D97E + V112A (human, UniProt P61073-1 1-352, D97E | V112A); assay: FACS
CXCR4 D262A [24] = target: CXCR4 D262A (human, UniProt P61073-1 1-352, D262A); assay: FACS
CXCR4 D97N = CXCR4 D97N (human, UniProt P61073-1 1-352, D97N); assay: FACS

Chain of CXCR4 E288D (P61073 whole entry E288D): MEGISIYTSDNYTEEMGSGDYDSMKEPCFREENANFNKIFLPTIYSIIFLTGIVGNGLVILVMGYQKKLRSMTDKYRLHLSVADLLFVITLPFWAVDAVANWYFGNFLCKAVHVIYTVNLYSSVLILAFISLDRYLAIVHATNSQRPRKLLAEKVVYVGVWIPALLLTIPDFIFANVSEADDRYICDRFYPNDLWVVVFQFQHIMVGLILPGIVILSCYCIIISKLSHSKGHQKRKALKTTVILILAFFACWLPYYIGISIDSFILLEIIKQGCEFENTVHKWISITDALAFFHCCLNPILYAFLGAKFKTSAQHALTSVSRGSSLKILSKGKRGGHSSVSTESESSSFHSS
Chain of CXCR4 E277A (human, UniProt P61073-1 1-352, E277A) (P61073 whole entry E277A): as the sequence (P61073 whole entry E288D) above, with E277A, D288E counted along it
Chain of CXCR4 D97E (human, UniProt P61073-1 1-352, D97E) (P61073 whole entry D97E): as the sequence (P61073 whole entry E288D) above, with D97E, D288E counted along it
Chain of CXCR4 V112L (P61073 whole entry V112L): as the sequence (P61073 whole entry E288D) above, with V112L, D288E counted along it
Chain of CXCR4 L41A (human, UniProt P61073-1 1-352, L41A) (P61073 whole entry L41A): as the sequence (P61073 whole entry E288D) above, with L41A, D288E counted along it
Chain of CXCR4 D187E (human, UniProt P61073-1 1-352, D187E) (P61073 whole entry D187E): as the sequence (P61073 whole entry E288D) above, with D187E, D288E counted along it
Chain of CXCR4 D97E + V112A (human, UniProt P61073-1 1-352, D97E | V112A) (P61073 whole entry D97E/V112A): as the sequence (P61073 whole entry E288D) above, with D97E, V112A, D288E counted along it
Chain of CXCR4 D97E + V112L (human, UniProt P61073-1 1-352, D97E | V112L) (P61073 whole entry D97E/V112L): as the sequence (P61073 whole entry E288D) above, with D97E, V112L, D288E counted along it
Chain of CXCR4 V112A + L41A (human, UniProt P61073-1 1-352, L41A | V112A) (P61073 whole entry L41A/V112A): as the sequence (P61073 whole entry E288D) above, with L41A, V112A, D288E counted along it

## LVRYTKKVPQVSTPTL [EPI-X4, 16-mer fragment of albumin, endogenous antagonist and inverse agonist of CXCR4]
CXCR4 L41A [1]
  Fold change: 19
CXCR4 D97E [2]
  Fold change: 18
CXCR4 D97S [3]
  Fold change: 112
CXCR4 V112A [4]
  Fold change: 1.6
CXCR4 D187E [5]
  Fold change: 1.2
CXCR4 D262A [6]
  Fold change: 0.7
CXCR4 E277A [7]
  Fold change: 1.3
CXCR4 D97E + V112A [8]
  Fold change: 2.6
CXCR4 D97E + V112L [9]
  Fold change: 32
CXCR4 V112A + L41A [10]
  Fold change: 11
[11]
  Fold change: 7

B1: JM#21 408–416-NH2 (peptide)
peptide: ILRWSRKLP-NH2
notes: JM#21 truncated by three residues; source: synthetic peptide (Fmoc solid-phase synthesis, HPLC-purified)
[12]
  IC50: 262 nM

B2: WSC02 408–416-NH2 (peptide)
peptide: IVRWSKKVP-NH2
notes: WSC02 truncated by three residues; source: synthetic peptide (Fmoc solid-phase synthesis, HPLC-purified)
[12]
  IC50: 312 nM

B3: WSC02 (peptide)
peptide: IVRWSKKVPCVS
notes: also called EPI-X4 WSC02; source: synthetic peptide (Fmoc solid-phase synthesis, HPLC-purified)
[13]
  IC50: 5770 nM
CXCR4 D97S [14]
  IC50: 20400 nM
CXCR4 D97T
  IC50: 35400 nM
CXCR4 D97Q
  IC50: > 100000 nM
CXCR4 V112A [15]
  IC50: 670 nM
CXCR4 D97E [16]
  IC50: 9540 nM
CXCR4 E288A
  IC50: > 100000 nM
[17]
  IC50: 1130 nM
CXCR4 D97E + V112L [18]
  IC50: 2000 nM
CXCR4 V112L
  IC50: 420 nM
CXCR4 D187E [19]
  IC50: 490 nM
CXCR4 E288D
  IC50: 83200 nM
CXCR4 L41A [20]
  IC50: 1710 nM
CXCR4 V112A + L41A [21]
  IC50: 4700 nM
CXCR4 E277A [22]
  IC50: 770 nM
CXCR4 D97E + V112A [23]
  IC50: 1690 nM
CXCR4 D262A [24]
  IC50: 520 nM
CXCR4 D97N
  IC50: 527000 nM
[12]
  IC50: 539 nM

B4: EPI-X4 408–414-NH2 (peptide)
peptide: LVRYTKK-NH2
notes: source: synthetic peptide (Fmoc solid-phase synthesis, HPLC-purified)
[12]
  IC50: 954 nM

B5: WSC02 408–414-NH2 (peptide)
peptide: IVRWSKK-NH2
notes: WSC02 truncated by five residues; source: synthetic peptide (Fmoc solid-phase synthesis, HPLC-purified)
[12]
  IC50: 469 nM

B6: EPI-X4 408–416-NH2 (peptide)
peptide: LVRYTKKVP-NH2
notes: as for B4
[12]
  IC50: 1030 nM

B7: EPI-X4 JM#21 (peptide)
peptide: ILRWSRKLPCVS
notes: as for B4
[13]
  IC50: 400 nM
CXCR4 D97S [14]
  IC50: 5390 nM
CXCR4 D97T
  IC50: 3830 nM
CXCR4 D97Q
  IC50: 8050 nM
CXCR4 V112A [15]
  IC50: 3450 nM
CXCR4 D97E [16]
  IC50: 1910 nM
CXCR4 E288A
  IC50: 86400 nM
[17]
  IC50: 660 nM
CXCR4 D97E + V112L [18]
  IC50: 370 nM
CXCR4 V112L
  IC50: 410 nM
CXCR4 D187E [19]
  IC50: 310 nM
CXCR4 E288D
  IC50: 14200 nM
CXCR4 L41A [20]
  IC50: 720 nM
CXCR4 E277A [22]
  IC50: 280 nM
CXCR4 D97E + V112A [23]
  IC50: 470 nM
CXCR4 D262A [24]
  IC50: 230 nM
CXCR4 D97N
  IC50: 11000 nM
[12]
  IC50: 145 nM

B8: EPI-X4 JM#21 408–414-NH2 (peptide)
peptide: ILRWSRK-NH2
notes: JM#21 truncated by five residues; source: synthetic peptide (Fmoc solid-phase synthesis, HPLC-purified)
[12]
  IC50: 157 nM
